Patent US20230390362A1, “USE OF TRIGONAL AGONIST HAVING ACTIVITIES TO ALL OF GLUCAGON, GLP-1, AND GIP RECEPTORS IN TREATMENT OF SEQUELAE FOLLOWING RESPIRATORY INFECTIOUS DISEASES” (HANMI PHARM. CO., LTD., priority 2020, published 2023)
Positions of bridges follow the written chain, without caps; N, C: chain ends. Non-standard residues stand in square brackets, D forms with d. No end group written: not given here. *: point of attachment. Acetyl(2-(4-imidazolyl)) = O=C(Cc1c[nH]cn1)*; Aib = CC(C)(N)C(=O)O

T1: human GIP receptor (human, UniProt P48546 22-466)
T1 sequence (looked up): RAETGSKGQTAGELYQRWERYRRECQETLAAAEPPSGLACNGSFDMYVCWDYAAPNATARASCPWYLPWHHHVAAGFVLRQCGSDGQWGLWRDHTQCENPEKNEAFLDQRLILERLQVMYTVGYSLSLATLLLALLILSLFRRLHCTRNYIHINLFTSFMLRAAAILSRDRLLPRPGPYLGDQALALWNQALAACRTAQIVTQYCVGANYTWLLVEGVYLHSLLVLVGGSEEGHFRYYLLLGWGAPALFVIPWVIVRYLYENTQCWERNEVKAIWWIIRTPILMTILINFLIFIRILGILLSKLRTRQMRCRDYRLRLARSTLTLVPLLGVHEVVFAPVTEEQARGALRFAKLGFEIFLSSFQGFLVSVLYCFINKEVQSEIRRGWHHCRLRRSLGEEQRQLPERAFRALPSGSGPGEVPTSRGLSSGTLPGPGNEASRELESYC


How the values were obtained:
Assay in all cases: cell-based or functional assay
human GLP-1 receptor = human GLP-1 receptor (human, UniProt P43220 24-463)
human GCG receptor = human GCG receptor (human, UniProt P47871 26-477)
human GIP receptor = target: T1, human GIP receptor

human GCG receptor, sequence (P47871 26-477): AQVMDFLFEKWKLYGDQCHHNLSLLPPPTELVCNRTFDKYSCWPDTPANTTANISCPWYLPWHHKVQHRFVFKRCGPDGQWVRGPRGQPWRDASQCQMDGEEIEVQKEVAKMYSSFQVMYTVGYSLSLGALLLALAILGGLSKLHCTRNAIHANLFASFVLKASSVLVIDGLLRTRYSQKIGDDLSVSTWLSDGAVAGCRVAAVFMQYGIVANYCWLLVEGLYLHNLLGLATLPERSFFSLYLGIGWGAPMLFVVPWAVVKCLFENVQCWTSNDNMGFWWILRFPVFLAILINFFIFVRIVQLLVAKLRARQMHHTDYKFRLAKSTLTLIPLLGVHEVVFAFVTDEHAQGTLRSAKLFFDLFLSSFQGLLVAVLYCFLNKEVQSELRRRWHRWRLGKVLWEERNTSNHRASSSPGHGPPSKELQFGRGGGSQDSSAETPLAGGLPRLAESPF

| Binder | In vitro activity relative to native peptide (%), vs. GLP-1 (cAMP EC50) (human GLP-1 receptor) | In vitro activity relative to native peptide (%), vs. Glucagon (cAMP EC50) (human GCG receptor) | In vitro activity relative to native peptide (%), vs. GIP (cAMP EC50) (human GIP receptor) |
| --- | --- | --- | --- |
| H[Aib]QGTFTSDVSSYLDGQAAKEFIAWLVKGC [trigonal agonist of SEQ ID NO: 1] | 3.2% | < 0.1% | < 0.1% |
| {Acetyl(2-(4-imidazolyl))}-[Aib]QGTFTSDYSICMDEIHQKDFVNWLLNTK (bridge 15-19) [trigonal agonist of SEQ ID NO: 49] | 29.8% | < 0.1% | 3.3% |
| H[Aib]QGTFTSDVSSYLLGQQQKEFIAWLVKGGGPSSGAPPPSC [trigonal agonist of SEQ ID NO: 5] | 42.1% | < 0.1% | < 0.1% |
| H[Aib]QGTFTSDYSKYLDEKRQKEFVNWLLAQKC (bridge 16-20) [trigonal agonist of SEQ ID NO: 34] | 19.1% | 0.92% | 0.6% |
| H[Aib]QGTFTSDYSIAMDEIHQKDFVNWLLNTKC (bridge 16-20) [trigonal agonist of SEQ ID NO: 35] | 7.5% | < 0.1% | 1.3% |
| Y[Aib]QGTFTSDYSKYLDEKRAKEFVQWLLDHHPSSGQPPPSC (bridge 16-20) [trigonal agonist of SEQ ID NO: 42] | 33.9% | 206% | 7.8% |
| H[Aib]QGTFTSDYSKYLDECRQKEFVQWLLNGGPSSGAPPPSG (bridge 16-20) [trigonal agonist of SEQ ID NO: 37] | 236% | 6.21% | 2.2% |
| H[Aib]QGTFTSDYSKYLDEKRQKEFVQWLLNTC (bridge 16-20) [trigonal agonist of SEQ ID NO: 51] | 14.4% | 2% | 0.1% |
| Y[Aib]QGTFTSDYSKYLDEKRAKEFVQWLLDHHCSSGQPPPS (bridge 16-20) [trigonal agonist of SEQ ID NO: 43] | 12.6% | 88.4% | 3.7% |
| H[Aib]QGTFTSDVSSYLLGQQQKEFIAWLVKGC [trigonal agonist of SEQ ID NO: 4] | 8.5% | < 0.1% | < 0.1% |
| H[Aib]EGTFTSDYSIAMDEIHQKDFVNWLLAQC (bridge 16-20) [trigonal agonist of SEQ ID NO: 53] | 161% | 8.4% | 1.3% |
| H[Aib]QGTFTSDYSKYLCEKRQKEFVQWLLNGGPSSGAPPPSG (bridge 16-20) [trigonal agonist of SEQ ID NO: 36] | 37.4% | 0.39% | 0.2% |
| H[Aib]QGTFTSDYSKYLDGQHAQCFVAWLLAGGGPSSGAPPPS [trigonal agonist of SEQ ID NO: 39] | 13.9% | 0.53% | < 0.1% |
| H[Aib]QGTFTSDKSKYLDECAAQDFVQWLLDGGPSSGAPPPS [trigonal agonist of SEQ ID NO: 41] | 34.3% | < 0.1% | < 0.1% |
| H[Aib]QGTFTSDYSKYLDEKRAKEFVQWLLDHHPSSGQPPPSC (bridge 16-20) [trigonal agonist of SEQ ID NO: 50] | 67.4% | 50.5% | 2.7% |
| H[Aib]QGTFTSDKSKYLDERACQDFVQWLLDGGPSSGAPPPS [trigonal agonist of SEQ ID NO: 40] | 75.2% | < 0.1% | < 0.1% |
| HGQGTFTSDCSKQLDGQAAQEFVAWLLAGGPSSGAPPPS [trigonal agonist of SEQ ID NO: 44] | 1.3% | < 0.1% | < 0.1% |
| HGQGTFTSDCSKYLDEQHAQEFVAWLLAGGPSSGAPPPS [trigonal agonist of SEQ ID NO: 46] | 1.4% | < 0.1% | < 0.1% |
| HGQGTFTSDCSKYMDGQAAQDFVAWLLAGGPSSGAPPPS [trigonal agonist of SEQ ID NO: 45] | 6.6% | < 0.1% | < 0.1% |
| HGQGTFTSDCSKYLDGQRAQEFVAWLLAGGPSSGAPPPS [trigonal agonist of SEQ ID NO: 47] | 2.4% | < 0.1% | < 0.1% |
| HGQGTFTSDCSKYLDGQRAQDFVNWLLAGGPSSGAPPPS [trigonal agonist of SEQ ID NO: 48] | 1.5% | < 0.1% | < 0.1% |
| {Acetyl(2-(4-imidazolyl))}-[Aib]QGTFTSDKSSYLDERAAQDFVQWLLDGGPSSGAPPPSS [trigonal agonist of SEQ ID NO: 38] | 2.3% |  |  |
| H[Aib]QGTFTSDYSKYLDEKRQKEFVQWLLDTC (bridge 16-20) [trigonal agonist of SEQ ID NO: 52] | 44.1% | 7.5% | 0.3% |
